Test in all cases: SEC
On the technique in general: SEC sorts molecules by how far they enter the pores of the column.

In assay [1] the target is SARS-CoV-2 Nsp15 T113I (SARS-CoV-2).
The target in assay [2] is SARS-CoV-2 Nsp15 T115A (SARS-CoV-2).
Assay [3] deals with SARS-CoV-2 Nsp15 H235Y (SARS-CoV-2).
Assay [4] addresses SARS-CoV-2 Nsp15 L163F (SARS-CoV-2).
The target in assay [5] is SARS-CoV-2 Nsp15 K290N (SARS-CoV-2).
The target of assay [6] is SARS-CoV-2 Nsp15 D133Y (SARS-CoV-2).
The target in assay [7] is SARS-CoV-2 Nsp15 K13N (SARS-CoV-2).
Assay [8] addresses SARS-CoV-2 Nsp15 W333C (SARS-CoV-2).
Assay [9] has as its target SARS-CoV-2 Nsp15 R207S (SARS-CoV-2).
Assay [10] deals with SARS-CoV-2 Nsp15 G18E (SARS-CoV-2).
In assay [11] the target is SARS-CoV-2 Nsp15 K13R (SARS-CoV-2).
The target in assay [12] is SARS-CoV-2 Nsp15 T34I (SARS-CoV-2).
Assay [13] has as its target SARS-CoV-2 Nsp15 G18R (SARS-CoV-2).
For assay [14], the target named is SARS-CoV-2 Nsp15 P206S (SARS-CoV-2).
Assay [15] addresses SARS-CoV-2 Nsp15 V321M (SARS-CoV-2).
The target in assay [16] is SARS-CoV-2 Nsp15 A93S (SARS-CoV-2).
The target in assay [17] is SARS-CoV-2 Nsp15 V128F (SARS-CoV-2).

Regarding SARS-CoV-2 Nsp15 T113I (enzyme), in [1], the hexamer/monomer ratio came to 1.79. As to SARS-CoV-2 Nsp15 T115A (enzyme), the hexamer/monomer ratio in [2] was 0.55.

For the substance SARS-CoV-2 Nsp15 H235Y (enzyme), the hexamer/monomer ratio in [3] is 1.61.

For the substance SARS-CoV-2 Nsp15 L163F (enzyme), the hexamer/monomer ratio in assay [4] amounted to 0.23. On to SARS-CoV-2 Nsp15 K290N (enzyme), for which the hexamer/monomer ratio in assay [5] is 2.12. As to SARS-CoV-2 Nsp15 D133Y (enzyme), in assay [6], the hexamer/monomer ratio is 0.48. As to SARS-CoV-2 Nsp15 K13N (enzyme), the hexamer/monomer ratio in [7] was found to be 0.63. As to SARS-CoV-2 Nsp15 W333C (enzyme), the hexamer/monomer ratio in assay [8] came to 0.77. Consider SARS-CoV-2 Nsp15 R207S (enzyme), for which the hexamer/monomer ratio in [9] amounted to 0.14. Turning to SARS-CoV-2 Nsp15 G18E (enzyme), the hexamer/monomer ratio in assay [10] worked out at 0.56. With SARS-CoV-2 Nsp15 K13R (enzyme), the hexamer/monomer ratio in [11] was determined as 1.18. Consider SARS-CoV-2 Nsp15 T34I (enzyme), for which the hexamer/monomer ratio in assay [12] worked out at 1.01. With SARS-CoV-2 Nsp15 G18R (enzyme), the hexamer/monomer ratio in [13] was found to be 0.88. Consider SARS-CoV-2 Nsp15 P206S (enzyme), for which, in assay [14], the hexamer/monomer ratio turned out to be 2.49.

In the case of SARS-CoV-2 Nsp15 V321M (enzyme), in assay [15], the hexamer/monomer ratio was found to be 0.65.

Turning to SARS-CoV-2 Nsp15 A93S (enzyme), the hexamer/monomer ratio in assay [16] came to 0.49. With SARS-CoV-2 Nsp15 V128F (enzyme), the hexamer/monomer ratio in [17] came out at 0.5.

(Values after paper PMC9389836.)
